According to paper PMC6355189, “A structural model of the immune checkpoint CD160–HVEM complex derived from HDX-mass spectrometry and molecular modeling” (Oncotarget, 2019):
Ends that are not written are not given here.

T1: Human HVEM-Fc protein (human, UniProt Q92956 39-202)
T1 construct: herpes virus entry mediator (HVEM), human, as Fc fusion, bought; Detected by goat anti-human IgG(H+L)-HRP; source: bought: ACROBiosystems, USA (#HVM-H5258)
T1 sequence (looked up): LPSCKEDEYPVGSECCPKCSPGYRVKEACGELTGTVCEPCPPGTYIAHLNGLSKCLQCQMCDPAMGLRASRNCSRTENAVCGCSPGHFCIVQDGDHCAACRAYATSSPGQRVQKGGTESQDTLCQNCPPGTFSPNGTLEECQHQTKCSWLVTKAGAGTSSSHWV

T2: Recombinant human protein HVEM with His Tag (human, UniProt Q92956 39-202)
T2 construct: herpes virus entry mediator (HVEM), human, recombinant, bought; also called HVEM protein; herpes virus entry mediator; source: bought: Sino Biological Inc., China (#10334-H08H)
T2 sequence (looked up): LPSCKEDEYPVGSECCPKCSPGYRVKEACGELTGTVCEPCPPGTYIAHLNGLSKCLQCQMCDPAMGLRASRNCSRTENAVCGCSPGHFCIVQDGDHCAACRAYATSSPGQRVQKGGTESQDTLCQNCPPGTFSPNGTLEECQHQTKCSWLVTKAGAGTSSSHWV


Experiments:
Human HVEM-Fc protein = molecular target: T1, Human HVEM-Fc protein; test: ELISA; biotinylated peptides or biotinylated CD160 (1 μg/ml) on a streptavidin microplate; HVEM-Fc at 20, 10 and 5 μg/ml, 1 hour at 25°C; PBS-T (5 mM Na2HPO4, 150 mM NaCl with addition of 0.3 M NaCl and 0.05% Tween-20, pH 7.4); detection by goat antihuman IgG(H+L)–HRP; details: both partners purified
[1] = molecular target: T2, Recombinant human protein HVEM with His …; test: microcolumn affinity test with mass spectrometry; HVEM protein immobilised in a microcolumn; peptide applied; supernatant, last wash and elution analysed by mass spectrometry; details: both partners purified

| binding result (Human HVEM-Fc protein) | binding result [1] | Binder |
| --- | --- | --- |
| binds |  | GVGEISSQLMFTISQVTPLH (also: elongated by five glycine residues and biotin, end not given here, CD160, human, residues 61-80; source: synthetic peptide) [CD160(61–80) peptide elongated by five glycine residues and biotin] |
|  | binds | Ac-GVGEISSQLMFTISQVTPLH-NH2 (CD160, human, residues 61-80; source: synthetic peptide) [CD160 (61–80)] |
